The values that follow come from US20250002610A1 (Genmab, published 2025).

For orientation: EC50 means the concentration at which the effect is half-maximal. Lower therefore signals a more potent agent.

Experiment [1] deals with T1, human FAPα (Fibroblast activation protein alpha), cell surface expressed (human, UniProt Q12884 1-760).
T1 construct: Endogenous on human lung fibroblasts and CAFs
T1 sequence: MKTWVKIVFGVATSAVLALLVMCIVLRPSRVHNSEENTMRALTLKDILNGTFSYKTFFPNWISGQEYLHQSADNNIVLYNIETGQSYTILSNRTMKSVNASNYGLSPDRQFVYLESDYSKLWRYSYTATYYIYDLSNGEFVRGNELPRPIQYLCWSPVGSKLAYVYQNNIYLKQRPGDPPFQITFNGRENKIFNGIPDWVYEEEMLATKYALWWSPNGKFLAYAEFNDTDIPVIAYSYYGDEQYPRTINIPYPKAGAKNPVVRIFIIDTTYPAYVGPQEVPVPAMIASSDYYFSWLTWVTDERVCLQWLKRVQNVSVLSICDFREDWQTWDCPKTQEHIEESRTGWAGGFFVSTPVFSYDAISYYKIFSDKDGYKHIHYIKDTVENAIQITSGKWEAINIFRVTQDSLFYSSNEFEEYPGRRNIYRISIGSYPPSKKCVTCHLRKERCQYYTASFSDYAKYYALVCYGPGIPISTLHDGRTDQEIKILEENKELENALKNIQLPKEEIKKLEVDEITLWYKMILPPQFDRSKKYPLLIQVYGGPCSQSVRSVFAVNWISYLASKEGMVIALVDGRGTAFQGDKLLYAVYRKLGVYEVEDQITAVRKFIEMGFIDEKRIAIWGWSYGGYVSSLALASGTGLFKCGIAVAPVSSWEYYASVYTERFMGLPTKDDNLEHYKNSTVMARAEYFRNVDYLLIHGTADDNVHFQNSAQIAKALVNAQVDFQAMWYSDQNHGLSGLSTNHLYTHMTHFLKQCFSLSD
Briefly: flow cytometry, CAFs, n = 2. How it is done:
(§1) Binding of bispecific or monoclonal antibodies carrying the anti-FAPα arm derived from IgG1-FAPα-FERL (BisG1-FAPα-FERL/DR4-FERR, BisG1-FAPα-FERL/b12-FERR, and IgG1-FAPα-FERL) to cell surface expressed human FAPα was analyzed by flow cytometry using human lung fibroblasts and CAFs, which endogenously express FAPα. BisG1-b12-FERL/b12-FERR was used as negative control.
(§2) Human lung fibroblasts and CAFs (50,000 cells/well) were seeded in 96-Well round bottom plates (Greiner Bio-one, Cat #650101). Antibody dilutions were prepared using fluorescence-activated cell sorting (FACS) buffer, consisting of phosphate buffer saline (PBS, Lonza, Cat #BE17-517Q)+1% Bovine Serum Albumin (BSA, Roche, Cat #10735086001)+0.02% Sodium Azide (Bio-World, Cat #41920044-3). Plates were centrifuged, supernatant was removed, cells were resuspended in 50 μL of human Fc Block (BD, Cat #564220, diluted 1:100 in FACS buffer) and 50 μL of viability stain TO-PRO-3 Iodide (Thermo Fisher, Cat #T3605, diluted 1: 25,000 in FACS buffer), and incubated for 15 min at 4° C. Plates were washed three times with FACS buffer. […] Antibody binding to viable cells (TO-PRO-3 negative) was analyzed by flow cytometry on a FACSCelesta™ (BD biosciences) and data were processed using FlowJo_v10.8.1 (FlowJo LLC). Geomean fluorescence intensity, gMFI, was determined and visualized using GraphPad Prism.
For orientation: Flow cytometry measures light scatter and fluorescence of single cells or particles in a stream.

Experiment [2] deals with T1, human FAPα (Fibroblast activation …). Briefly: flow cytometry, CAFs, average ± SEM. How it is done: as §1, §2
The target of experiment [3] is human DR4 with death domain deletion on ExpiCHO-S cells (human). The experiment can be described thus: flow cytometry, ExpiCHO-S cells expressing human DR4, n = 2. How it is done: Binding of BisG1-FAPα-FERL/DR4-FERR, BisG1-DR4-FEAL/b12-FEAR and IgG1-DR4-FERR to DR4 of various species commonly used for nonclinical toxicology studies was assessed by flow cytometry using ExpiCHO-S cells transiently expressing DR4 from different animal species. In contrast to other species, rodents only express one DR which has highest homology with human DR5. Therefore, ExpiCHO-S cells transiently expressing rat and mouse DR protein were used instead. All DR constructs lack the intracellular DD to avoid apoptosis of transfected cells upon DR(4) activation. IgG1-b12 was used as negative control.

B1: BisG1-FAPα-FERL/DR4-FERR (bispecific antibody, human IgG1, kappa, lambda)
heavy 1: EVQLLESGGGLVQPGGSPRLSCEASGFTFSSYALSWVRQAPGKGLEWVSAISGSGGGRYYADSVKGRFTISRDNSKNTLFLQMNSLRAEDTAVYYCAKEGYSSSGTYWDHWGQGTLVTVSSASTKGPSVFPLAPSSKSTSGGTAALGCLVKDYFPEPVTVSWNSGALTSGVHTFPAVLQSSGLYSLSSVVTVPSSSLGTQTYICNVNHKPSNTKVDKRVEPKSCDKTHTCPPCPAPEFERGPSVFLFPPKPKDTLMISRTPEVTCVVVDVSHEDPEVKFNWYVDGVEVHNAKTKPREEQYNSTYRVVSVLTVLHQDWLNGKEYKCKVSNKALPAPIEKTISKAKGQPREPQVYTLPPSREEMTKNQVSLTCLVKGFYPSDIAVEWESNGQPENNYKTTPPVLDSDGSFLLYSKLTVDKSRWQQGNVFSCSVMHEALHNHYTQKSLSLSPG
light 1: AIQMTQSPSSVSASVGDRVTITCRASQGVSSWLAWYQQKPGRAPKLLIYVASTLQSGVPSRFSGSGSGTDFTLTINSLQPEDFATYYCQQANSFPPTFGQGTRLEMKRTVAAPSVFIFPPSDEQLKSGTASVVCLLNNFYPREAKVQWKVDNALQSGNSQESVTEQDSKDSTYSLSSTLTLSKADYEKHKVYACEVTHQGLSSPVTKSFNRGEC
heavy 2: QVQLQESGPGLVKPSGTLSLTCAVSGGSISSYSWWSWIRQPPGKGLEWIGELYHSGSTNYNPSLKSRVTISVDKSKNQFSLKLRSVTAADTAVYYCVRGVATIDYWGQGTLVTVSSASTKGPSVFPLAPSSKSTSGGTAALGCLVKDYFPEPVTVSWNSGALTSGVHTFPAVLQSSGLYSLSSVVTVPSSSLGTQTYICNVNHKPSNTKVDKRVEPKSCDKTHTCPPCPAPEFERGPSVFLFPPKPKDTLMISRTPEVTCVVVDVSHEDPEVKFNWYVDGVEVHNAKTKPREEQYNSTYRVVSVLTVLHQDWLNGKEYKCKVSNKALPAPIEKTISKAKGQPREPQVYTLPPSREEMTKNQVSLTCLVKGFYPSDIAVEWESNGQPENNYKTTPPVLDSDGSFFLYSRLTVDKSRWQQGNVFSCSVMHEALHNHYTQKSLSLSPG
light 2: QSALTQPPSASGSPGQSVTISCTGTSSDVGGYNFVSWYQQDPGKAPKLLIYEVTKRPSGVPDRFSGSKSGNTASLTVSGLQAEDEADYYCSSYAGSNNVMFGGGTKLTVLGQPKAAPSVTLFPPSSEELQANKATLVCLISDFYPGAVTVAWKADSSPVKAGVETTTPSKQSNNKYAASSYLSLTPEQWKSHRSYSCQVTHEGSTVEKTVAPTECS
notes: Human IgG1 bispecific made by controlled Fab-arm exchange of IgG1-FAPα-FERL and IgG1-DR4-FERR; monovalent for FAPα and for DR4; also called GEN1057
For the molecule B1, the EC50 in experiment [1] is 0.232 µg/mL; in experiment [2], 0.203 µg/mL; in experiment [3], 0.38 µg/mL.

B2: BisG1-FAPα-FERL/b12-FERR (bispecific antibody, human IgG1, kappa)
heavy 1: B1 heavy 1
light 1: B1 light 1
heavy 2: QVQLVQSGAEVKKPGASVKVSCQASGYRFSNFVIHWVRQAPGQRFEWMGWINPYNGNKEFSAKFQDRVTFTADTSANTAYMELRSLRSADTAVYYCARVGPYSWDDSPQDNYYMDVWGKGTTVIVSSASTKGPSVFPLAPSSKSTSGGTAALGCLVKDYFPEPVTVSWNSGALTSGVHTFPAVLQSSGLYSLSSVVTVPSSSLGTQTYICNVNHKPSNTKVDKRVEPKSCDKTHTCPPCPAPEFERGPSVFLFPPKPKDTLMISRTPEVTCVVVDVSHEDPEVKFNWYVDGVEVHNAKTKPREEQYNSTYRVVSVLTVLHQDWLNGKEYKCKVSNKALPAPIEKTISKAKGQPREPQVYTLPPSREEMTKNQVSLTCLVKGFYPSDIAVEWESNGQPENNYKTTPPVLDSDGSFFLYSRLTVDKSRWQQGNVFSCSVMHEALHNHYTQKSLSLSPG
light 2: EIVLTQSPGTLSLSPGERATFSCRSSHSIRSRRVAWYQHKPGQAPRLVIHGVSNRASGISDRFSGSGSGTDFTLTITRVEPEDFALYYCQVYGASSYTFGQGTKLERKRTVAAPSVFIFPPSDEQLKSGTASVVCLLNNFYPREAKVQWKVDNALQSGNSQESVTEQDSKDSTYSLSSTLTLSKADYEKHKVYACEVTHQGLSSPVTKSFNRGEC
Turning to B2, the EC50 in experiment [1] came to 0.231 µg/mL; in experiment [2], 0.21 µg/mL.

B3: IgG1-DR4-FERR (antibody, V domains shown)
VH: QVQLQESGPGLVKPSGTLSLTCAVSGGSISSYSWWSWIRQPPGKGLEWIGELYHSGSTNYNPSLKSRVTISVDKSKNQFSLKLRSVTAADTAVYYCVRGVATIDYWGQGTLVTVSS
VL: QSALTQPPSASGSPGQSVTISCTGTSSDVGGYNFVSWYQQDPGKAPKLLIYEVTKRPSGVPDRFSGSKSGNTASLTVSGLQAEDEADYYCSSYAGSNNVMFGGGTKLTVLG
notes: Bivalent monoclonal IgG1 lambda
For B3, the EC50 in experiment [3] is 0.06 µg/mL.
